Data on one substance can be found in publication PMC4944999 (PLoS ONE, 2016).

In the assay the target is PeB^GF-Lys, double substituted variant ([change], [change]) of PeB-Lys (mouse). Briefly: SPR. On the technique in general: In SPR one partner is held on a chip, and binding of the other changes the refractive index at the surface.

As for “hemagglutinin (HA) of influenza A/NewYork/55/2004 H3N2, in monovalent split vaccine (natural protein)”, the fold amount of hemagglutinin bound compared to PeB worked out at 4 fold.
